Experimental data: publication doi:10.1101/366336

B1: BS2-d2 (ssRNA)
RNA: CCCUUUAAGUGGGUCACG
B2: G11 (ssRNA)
RNA: GGGGGGGGGGG
B3: 202-224 (ssRNA)
RNA: GGUUCAGGGGGAGGUGUGGGAGG
B4: BS2 (ssRNA)
RNA: GGGUUUAAGUGGGUCACGUUUAAAC
B5: 208-225 (ssRNA)
RNA: GGGGGAGGUGUGGGAGGU
B6: 208-224 (ssRNA)
RNA: GGGGGAGGUGUGGGAGG
B7: BS2-d3 (ssRNA)
RNA: UUUAAGUGGGUCACG
B8: G13 (ssRNA)
RNA: GGGGGGGGGGGGG
B9: BS2-d1 (ssRNA)
RNA: GGGUUUAAGUGGGUCACG
B10: G12 (ssRNA)
RNA: GGGGGGGGGGGG

Biological target: hPcf11 (in CF II);hClp1 (human;human, UniProt O94913;Q92989 1-1555;1-425, |)
Assay: EMSA

hPcf11 (in CF II);hClp1, sequence (O94913 whole entry, chain 1 of 2): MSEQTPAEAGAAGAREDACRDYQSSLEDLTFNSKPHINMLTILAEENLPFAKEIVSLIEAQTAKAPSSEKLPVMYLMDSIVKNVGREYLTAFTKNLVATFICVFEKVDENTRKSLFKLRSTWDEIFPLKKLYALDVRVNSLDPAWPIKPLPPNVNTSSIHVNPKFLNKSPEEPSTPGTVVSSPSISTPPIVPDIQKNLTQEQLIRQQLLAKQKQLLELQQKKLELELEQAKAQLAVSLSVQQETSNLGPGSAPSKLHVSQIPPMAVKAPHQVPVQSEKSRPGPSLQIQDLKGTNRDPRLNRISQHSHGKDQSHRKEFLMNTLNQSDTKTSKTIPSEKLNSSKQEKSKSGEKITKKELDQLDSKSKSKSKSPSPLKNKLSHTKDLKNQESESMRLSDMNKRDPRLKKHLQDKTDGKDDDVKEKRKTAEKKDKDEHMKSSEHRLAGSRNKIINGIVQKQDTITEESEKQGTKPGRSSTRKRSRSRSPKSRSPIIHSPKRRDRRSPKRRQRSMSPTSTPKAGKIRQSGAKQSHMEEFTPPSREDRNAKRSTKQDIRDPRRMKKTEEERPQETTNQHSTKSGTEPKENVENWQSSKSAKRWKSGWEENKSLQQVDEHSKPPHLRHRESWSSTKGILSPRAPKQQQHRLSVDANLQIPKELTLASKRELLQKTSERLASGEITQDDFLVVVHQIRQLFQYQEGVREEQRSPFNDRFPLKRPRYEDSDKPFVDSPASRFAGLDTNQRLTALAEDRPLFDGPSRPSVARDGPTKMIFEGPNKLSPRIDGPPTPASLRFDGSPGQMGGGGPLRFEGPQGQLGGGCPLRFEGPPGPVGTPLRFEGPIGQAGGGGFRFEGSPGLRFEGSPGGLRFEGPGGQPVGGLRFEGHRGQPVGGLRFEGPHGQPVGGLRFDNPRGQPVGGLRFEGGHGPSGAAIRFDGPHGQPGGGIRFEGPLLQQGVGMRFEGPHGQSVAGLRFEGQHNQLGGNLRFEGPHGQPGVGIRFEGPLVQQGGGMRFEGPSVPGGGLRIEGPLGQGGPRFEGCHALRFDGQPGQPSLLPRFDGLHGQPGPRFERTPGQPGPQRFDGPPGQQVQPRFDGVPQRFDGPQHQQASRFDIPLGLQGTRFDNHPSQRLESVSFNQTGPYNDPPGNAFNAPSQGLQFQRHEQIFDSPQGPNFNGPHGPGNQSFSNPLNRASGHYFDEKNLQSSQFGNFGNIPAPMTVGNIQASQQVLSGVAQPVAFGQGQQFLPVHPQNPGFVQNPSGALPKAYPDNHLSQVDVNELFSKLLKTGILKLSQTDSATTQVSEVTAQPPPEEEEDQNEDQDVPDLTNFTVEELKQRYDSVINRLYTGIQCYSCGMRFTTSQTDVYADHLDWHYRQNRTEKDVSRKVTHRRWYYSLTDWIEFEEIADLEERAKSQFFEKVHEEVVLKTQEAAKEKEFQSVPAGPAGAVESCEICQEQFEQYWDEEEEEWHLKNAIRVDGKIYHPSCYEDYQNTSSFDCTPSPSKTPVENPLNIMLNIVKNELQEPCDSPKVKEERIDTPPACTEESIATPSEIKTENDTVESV
hPcf11 (in CF II);hClp1, sequence (Q92989 whole entry, chain 2 of 2): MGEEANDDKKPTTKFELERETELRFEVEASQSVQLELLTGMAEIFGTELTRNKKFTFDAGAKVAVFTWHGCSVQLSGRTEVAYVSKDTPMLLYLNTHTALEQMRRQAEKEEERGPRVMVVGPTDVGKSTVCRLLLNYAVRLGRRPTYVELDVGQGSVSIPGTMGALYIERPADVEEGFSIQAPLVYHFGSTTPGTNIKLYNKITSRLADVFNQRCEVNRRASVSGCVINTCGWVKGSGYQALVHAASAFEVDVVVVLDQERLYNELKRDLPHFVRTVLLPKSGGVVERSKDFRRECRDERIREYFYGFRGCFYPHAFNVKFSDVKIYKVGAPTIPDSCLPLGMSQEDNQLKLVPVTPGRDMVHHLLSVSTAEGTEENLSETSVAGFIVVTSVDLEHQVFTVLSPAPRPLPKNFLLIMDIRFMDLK

| Binder | Kd [nM] |
| --- | --- |
| B1 | 54 |
| B2 | 41 |
| B3 | 0.8 |
| B4 | 11 |
| B5 | 2.6 |
| B6 | 5.2 |
| B7 | 105 |
| B8 | 21 ± 12 |
| B9 | 13 |
| B10 | 21 ± 9 |
